From publication PMC12365351

Tests used:
[1] = target: rNcSAG1* (recombinant Neospora caninum SAG1, residues 31-317, Strep-tag removed by enterokinase) (Neospora caninum); assay: SEC; preparative SEC of the proteins after removal of the Strep-tag with enterokinase, 0.1 M Tris-Cl pH 8.0, 0.15 M NaCl, 1 mM EDTA; unique peak slightly shifted towards smaller size; self-association (dimer)
[2] = target: rNcSAG1-ST (recombinant Neospora caninum SAG1, residues 31-317, with C-terminal Twin-Strep-tag) (Neospora caninum); assay: SEC; analytical SEC of the re-injected main peak, Superdex 200 Increase 10/300 GL, 0.1 M Tris-Cl pH 8.0, 0.15 M NaCl, 1 mM EDTA, 0.5 ml/min; MW estimated from calibration with LMW and HMW kits; self-association (dimer)
[3] = target: rNcSRS2* (recombinant Neospora caninum SRS2, residues 54-401, Strep-tag removed by enterokinase) (Neospora caninum); assay: SEC; preparative SEC of the proteins after removal of the Strep-tag with enterokinase, 0.1 M Tris-Cl pH 8.0, 0.15 M NaCl, 1 mM EDTA; unique peak slightly shifted towards smaller size; self-association (dimer)
[4] = target: rNcSRS2-ST (recombinant Neospora caninum SRS2, residues 54-401, with C-terminal Twin-Strep-tag) (Neospora caninum); assay: SEC; analytical SEC of the re-injected main peak, Superdex 200 Increase 10/300 GL, 0.1 M Tris-Cl pH 8.0, 0.15 M NaCl, 1 mM EDTA, 0.5 ml/min; MW estimated from calibration with LMW and HMW kits; self-association (dimer)

Substance: rNcSAG1* (recombinant Neospora caninum SAG1, residues 31-317, Strep-tag removed by enterokinase) (domain or fragment)
- stoichiometry N [1]: 2

Substance: rNcSAG1-ST (recombinant Neospora caninum SAG1, residues 31-317, with C-terminal Twin-Strep-tag) (domain or fragment)
- stoichiometry N [2]: 2

Substance: rNcSRS2* (recombinant Neospora caninum SRS2, residues 54-401, Strep-tag removed by enterokinase) (domain or fragment)
- stoichiometry N [3]: 2

Substance: rNcSRS2-ST (recombinant Neospora caninum SRS2, residues 54-401, with C-terminal Twin-Strep-tag) (domain or fragment)
- stoichiometry N [4]: 2
